Source: publication doi:10.1101/2023.08.08.549832
Blank lines part the entries; values can stand above or below the molecule they belong to.

Columns and labels:
Assay in all cases: FRET or BRET
[1] = molecular target: PTCH1-eGFP (enhanced green fluorescent protein-tagged human PTCH1) (human) (UniProt Q13635)
[2] = molecular target: PTCH2-eGFP (not stated (printed entry Q9Y6C5 is human PTCH2)) (UniProt Q9Y6C5)
[3] = molecular target: PTCH1-eGFP (enhanced green fluorescent protein-tagged human PTCH1) (human) (UniProt Q13635); remark: listed apart in the source

net increase in GFP signal after mCherry photobleaching [1]: > 10%
magnitude of GFP signal change against PTCH1 homodimers [2]: 50 % lower
Molecule: PTCH1-mCherry (from UniProt Q13635 1-1447) (receptor)

magnitude of GFP signal change against PTCH1 homodimers [3]: 50 % lower
B1: PTCH2-mCherry (receptor)
chain: MTRSPPLRELPPSYTPPARTAAPQILAGSLKAPLWLRAYFQGLLFSLGCGIQRHCGKVLFLGLLAFGALALGLRMAIIETNLEQLWVEVGSRVSQELHYTKEKLGEEAAYTSQMLIQTARQEGENILTPEALGLHLQAALTASKVQVSLYGKSWDLNKICYKSGVPLIENGMIERMIEKLFPCVILTPLDCFWEGAKLQGGSAYLPGRPDIQWTNLDPEQLLEELGPFASLEGFRELLDKAQVGQAYVGRPCLHPDDLHCPPSAPNHHSRQAPNVAHELSGGCHGFSHKFMHWQEELLLGGMARDPQGELLRAEALQSTFLLMSPRQLYEHFRGDYQTHDIGWSEEQASTVLQAWQRRFVQLAQEALPENASQQIHAFSSTTLDDILHAFSEVSAARVVGGYLLMLAYACVTMLRWDCAQSQGSVGLAGVLLVALAVASGLGLCALLGITFNAATTQVLPFLALGIGVDDVFLLAHAFTEALPGTPLQERMGECLQRTGTSVVLTSINNMAAFLMAALVPIPALRAFSLQAAIVVGCTFVAVMLVFPAILSLDLRRRHCQRLDVLCCFSSPCSAQVIQILPQELGDGTVPVGIAHLTATVQAFTHCEASSQHVVTILPPQAHLVPPPSDPLGSELFSPGGSTRDLLGQEEETRQKAACKSLPCARWNLAHFARYQFAPLLLQSHAKAIVLVLFGALLGLSLYGATLVQDGLALTDVVPRGTKEHAFLSAQLRYFSLYEVALVTQGGFDYAHSQRALFDLHQRFSSLKAVLPPPATQAPRTWLHYYRNWLQGIQAAFDQDWASGRITRHSYRNGSEDGALAYKLLIQTGDAQEPLDFSQLTTRKLVDREGLIPPELFYMGLTVWVSSDPLGLAASQANFYPPPPEWLHDKYDTTGENLRIPPAQPLEFAQFPFLLRGLQKTADFVEAIEGARAACAEAGQAGVHAYPSGSPFLFWEQYLGLRRCFLLAVCILLVCTFLVCALLLLNPWTAGLIVLVLAMMTVELFGIMGFLGIKLSAIPVVILVASVGIGVEFTVHVALGFLTTQGSRNLRAAHALEHTFAPVTDGAISTLLGLLMLAGSHFDFIVRYFFAALTVLTLLGLLHGLVLLPVLLSILGPPPEVIQMYKESPEILSPPAPQGGGLRWGASSSLPQSFARVTTSMTVAIHPPPLPGAYIHPAPDEPPWSPAATSSGNLSSRGPGPATG
